Experimental data as given in the supplement of paper PMC12042874.
± gives the uncertainty stated by the source.

Assay: amyloid nucleation score (Sup35N fusion, yeast selection) (log enrichment); library NNK1; higher = more nucleation; inactive = no reads after selection
Procedure, shortened: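 The nucleation score is the DiMSum log enrichment of output over input reads, centred on the mode score of non-aggregating sequences. Only sequences with 100 or more input reads were scored, using Illumina sequencing of input and output plasmid inserts. Psi-negative yeast expressing Sup35N fused to peptides of 20 random codons were induced 24 hours with 100 μM copper sulfate and grown 7 days at 30°C on medium lacking adenine and uracil.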

| Substance | amyloid nucleation score |
| --- | --- |
| LKSYSTFVIRMNWLGDEGEL | -0.874 ± 0.8 |
| ITRSWLT | -0.12 ± 0.3 |
| MYSISCIVNY | 2.56 ± 0.15 |
| RFNLCNGFMGIAKNCICIWT | 1.41 ± 0.45 |
| FSLVATGSYITLDSVLMDVL | 0.728 ± 0.44 |
| QNGRASVYFTGLAILYILID | 1.02 ± 0.25 |
| RSCKLWY | -0.204 ± 0.85 |
| MQIMRRIMWYDNSKVSF | -0.177 ± 0.2 |
| NEFEVCG | 0.108 ± 0.25 |
| ANSSFLYTSEHFRHVMAWFG | -0.075 ± 0.68 |
| EFLDELSGVVYSLLGYEVTR | 2.63 ± 0.13 |
| SGGMFQVICLV | 0.263 ± 0.34 |
| FQAGREKSCCAYEVGDGCLV | -1.16 ± 2.4 |
| HLVRLTFVMLFGGNLWISS | 0.91 ± 0.26 |
| EFNDCGSLWFGFIRYIILMN | 0.081 ± 0.25 |
| LGIAGER | 0.294 ± 0.33 |
| MGVYTCR | inactive |
| PLLLNEVKRL | 0.614 ± 0.29 |
| IFCAPLTTSQIALRVYNRRL | 0.727 ± 0.88 |
| FYCLSNKFFYIVCRNALQSS | -0.324 ± 0.35 |
| SQWALKITFYKMVAL | -0.171 ± 1.1 |
| IQNDCILVNSVSWYCVSGPP | 5.29 ± 0.064 |

| Substance | amyloid nucleation score |
| --- | --- |
| MMTACLFIIF | 5.925 ± 0.057 |
| FICFYVVSYTIMSLLFDTLG | 0.713 ± 0.92 |
| WRAYFACYNILESAFLLVQL | inactive |
| FLTTEYDDWVSSAFINCCGD | -0.475 ± 0.41 |
| ELMCFQQFKWKAMTYKWNGI | 0.337 ± 0.54 |
| SVMLLQLYMCLINFPNIPRT | 1.6 ± 0.44 |
| DTNFYLFMTHG | 0.244 ± 1 |
| FGWLKPR | 0.994 ± 0.49 |
| IDCGSFSYKQSMQLMCKSAQ | -0.19 ± 0.28 |
| MNMSKRFLRKLCERSRMPNR | 0.21 ± 0.61 |
| VKSWVPTDVGFEQQSGREVL | 0.093 ± 0.25 |
| TCFGL | -0.702 ± 1.2 |
| GLLIVGRRYLGGADVDIHEE | 0.713 ± 0.68 |
| YVIDGPSLSTCLVRV | 0.839 ± 0.5 |
| MGEATGSGISADDVYVQGEY | 4.26 ± 0.069 |
| CSLVLAIRHATCQEVVVGSC | 0.602 ± 0.6 |
| GYLLCAG | 0.549 ± 0.71 |
| FFESEVSDKNFGSC | -1.29 ± 2.4 |
| GSRCRRLWDM | -0.02 ± 0.55 |
| SIVVLGASTWR | 0.032 ± 0.61 |
| FHFVGLSVTVVLLSFWGWNT | 0.78 ± 0.52 |
| WSFQPGRVVFHMFERGDHCC | 0.187 ± 0.4 |

| Substance | amyloid nucleation score |
| --- | --- |
| EYVMIRHAVLIKMFSMLKRV | -0.577 ± 0.45 |
| IYFGFCRD | 2.02 ± 0.089 |
| EKGKLCKG | -0.101 ± 0.84 |
| YAISGAGYMLF | 0.027 ± 1.7 |
| DIRWGVSFIKGNFHTEL | inactive |
| VVNSSS | 0.537 ± 0.85 |
| GGTSIPVVGNQGMIGYVPCD | 0.825 ± 0.43 |
| FCAGGMGNCKCWLCFLRSTM | -1.33 ± 0.7 |
| NMDGSVSCVCNILSFDYGGS | 8.289 ± 0.077 |
| HRYYSYSWGLWLSTTWEYFS | inactive |
| VVLQTTPSAYSIMVHLWYYS | 0.472 ± 0.46 |
| SWDPNVSFALL | 2.93 ± 0.25 |
| TFNGFFCRCPSFKIYFHEVL | 0.825 ± 0.24 |
| EDMPFMTLKVIVFVTLMHLR | 2.02 ± 0.62 |
| VVTVLGVGLDSSSSGWWFVA | 0.168 ± 0.46 |
| WLAFWCDLGVSSSFFWAFCG | -0.066 ± 0.37 |
| ATGINTGMTSNYSVMEMWGF | 0.937 ± 0.48 |
| GYASAVVHHVGWNPTVGSLM | -0.115 ± 0.42 |
| HYACRRSVERSKRRGVRGSM | 0.039 ± 0.46 |
| LSTKRYDLHSTPRRPISPSR | 1.08 ± 0.41 |
| ERAPASSMGSWYGIGKGNAV | -0.061 ± 1.1 |
| MRWIVWYVIS | -0.859 ± 1.4 |

| Substance | amyloid nucleation score |
| --- | --- |
| SVFWAWCVADHTIIDQKSSL | 0.391 ± 0.48 |
| LLVGKMCRWNMSYVG | -0.063 ± 0.28 |
| VHSWQVVRYFRFLVLYSWDR | 0.539 ± 0.42 |
| IMVHWMIYCGRMYLHCSSIV | 0.086 ± 0.97 |
| GVTMVISPPYVMAGRSDMFL | -0.031 ± 0.65 |
| RYKIQPAIPVQEGLMGLSDP | 0.282 ± 0.43 |
| SCMTPMYRCSILLLA | -0.306 ± 0.42 |
| KLLSGGVNTWRPTGTSRLEI | -0.053 ± 0.46 |
| CHCGVL | 0.702 ± 1.1 |
| VIQRYRSVPI | 0.604 ± 0.67 |
| IATKGKDVVFVRCGPDPQL | 1.04 ± 0.53 |
| CTWYKFDIGWAEGLGYRDYP | 0.282 ± 1.2 |
| CSDRCTTYCLFSLSDRKRIL | -0.317 ± 0.25 |
| WYEVRYMLTQSYRVHMLFLI | -0.322 ± 1.7 |
| SFVYS | -0.157 ± 0.4 |
| FGIRVVSR | 0.842 ± 0.73 |
| FLGWICICPGQYRSAGPTAL | -0.487 ± 0.43 |
| MCMSRP | -1.05 ± 0.9 |
| CPCWLLMLFPCISYRRNLIV | -0.605 ± 0.46 |
| VLYELSKMGYRVLLYTHPDR | 0.125 ± 0.46 |
